Experiments:
[1] = target: T1, structural sub-unit A of PP2A (Homo sapiens, UniProt P30153); experiment: peptide spot membrane binding, detected by western blot, with PP2A sub-unit A; details: E4orf4 dodecapeptide membrane; 4 μg/ml purified protein overnight; antibody against protein A; FIG. 1
T1 construct: made in house; host or cells: bacteria
Source text: Recombinant protein A (structural sub-unit of PP2A) expressed in bacteria.
(§1) We have mapped the binding sites between the E4orf4 proteins (coded by the canine adenovirus type 2) and the anti-apoptotic Bcl-2 protein with PP2A by using the <<peptides spot>> technique previously described (Frank et Overwing. (1996). Meth. Mol. Biol. 66, 149-169).
(§2) This approach is based on the use of membranes containing thereon dodecapeptides representing the whole protein of interest (E4orf4 and Bcl-2) with a two amino acid gap per peptide.
(§3) Each membrane is first saturated one hour at room temperature with TBS containing 5% skim milk powder and 3% BSA, then incubated overnight in the same buffer in the of 4 μg/ml of purified protein (sub-unit A of PP2A and PP2A1 holoenzyme).: Fifty six dodecapeptides covering the whole sequence of the E4orf4 protein and hundred-fifteen dodecapeptides covering the whole sequence of the Bcl-2 protein were synthesized and covalently bound to cellulosic membranes. […]

[2] = target: T2, trimeric ABC holoenzyme PP2A1 (Sus scrofa, UniProt P54612+Q29090); experiment: peptide spot membrane binding, detected by western blot, with trimeric PP2A1 holoenzyme; set-up: species or system porcine; details: 4 μg/ml purified protein overnight, pool of antibodies against A, B and C; for binding of E4orf4 peptide sequence to PP2A1 protein: E4orf4 dodecapeptide membrane, FIG. 1; for binding of Bcl-2 peptide sequence to PP2A1 holoenzyme: Bcl-2 dodecapeptide membrane, FIG. 2
T2 construct: The trimeric PP2A1 protein has been purified to homogeneity from porcine brain; from tissue; host or cells: porcine brain
T2 sequence (P67776 whole entry, one chain of several, further chain): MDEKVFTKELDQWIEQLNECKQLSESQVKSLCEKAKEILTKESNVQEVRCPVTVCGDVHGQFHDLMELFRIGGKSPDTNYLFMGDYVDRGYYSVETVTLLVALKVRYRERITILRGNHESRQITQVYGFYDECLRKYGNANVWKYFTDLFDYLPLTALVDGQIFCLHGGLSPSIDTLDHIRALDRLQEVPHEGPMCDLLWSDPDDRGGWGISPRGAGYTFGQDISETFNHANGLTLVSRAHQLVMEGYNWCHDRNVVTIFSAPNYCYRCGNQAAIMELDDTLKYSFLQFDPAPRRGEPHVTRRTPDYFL
T2 sequence (P54612 whole entry, one chain of several): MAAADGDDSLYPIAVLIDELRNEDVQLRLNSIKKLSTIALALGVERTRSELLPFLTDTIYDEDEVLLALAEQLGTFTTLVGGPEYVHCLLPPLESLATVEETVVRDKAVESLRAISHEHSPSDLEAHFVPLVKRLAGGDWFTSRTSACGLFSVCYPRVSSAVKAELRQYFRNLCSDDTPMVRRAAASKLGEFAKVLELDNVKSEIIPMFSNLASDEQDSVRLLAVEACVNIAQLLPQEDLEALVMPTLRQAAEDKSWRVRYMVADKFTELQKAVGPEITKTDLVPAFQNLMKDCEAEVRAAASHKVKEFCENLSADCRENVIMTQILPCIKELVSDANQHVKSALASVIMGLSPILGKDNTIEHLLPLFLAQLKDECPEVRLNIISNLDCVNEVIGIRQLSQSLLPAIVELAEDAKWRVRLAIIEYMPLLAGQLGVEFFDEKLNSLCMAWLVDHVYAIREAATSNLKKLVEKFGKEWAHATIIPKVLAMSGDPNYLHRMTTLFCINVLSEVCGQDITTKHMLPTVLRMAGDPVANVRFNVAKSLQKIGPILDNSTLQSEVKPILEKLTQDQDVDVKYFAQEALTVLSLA
Source text: The trimeric PP2A1 protein has been purified to homogeneity from porcine brain.
as §1, §2
Each membrane is first saturated one hour at room temperature with TBS containing 5% skim milk powder and 3% BSA, then incubated overnight in the same buffer in the of 4 μg/ml of purified protein (sub-unit A of PP2A and PP2A1 holoenzyme).: Fifty six dodecapeptides covering the whole sequence of the E4orf4 protein and hundred-fifteen dodecapeptides covering the whole sequence of the Bcl-2 protein were synthesized and covalently bound to cellulosic membranes.
The specific interaction of each purified protein (respectively the structural sub-unit A, the regulatory sub-unit of B55(B) or the trimeric ABC holoenzyme (named PP2A1) with a peptide sequence is shown by western blot, following incubation of the membrane with an antibody raised against the structural protein A (A), the regulatory sub-unit B (B) and with a pool of antibodies recognising the A, B, and C proteins of PP2A (ABC) (FIGS. 1 and 2).

[3] = target: T3, regulatory sub-unit B55 (B) of PP2A (Homo sapiens, UniProt P63151); experiment: peptide spot membrane binding, detected by western blot, with PP2A sub-unit B55; details: antibody against sub-unit B
T3 construct: made in house; host or cells: bacteria
T3 sequence (P63151 1-447): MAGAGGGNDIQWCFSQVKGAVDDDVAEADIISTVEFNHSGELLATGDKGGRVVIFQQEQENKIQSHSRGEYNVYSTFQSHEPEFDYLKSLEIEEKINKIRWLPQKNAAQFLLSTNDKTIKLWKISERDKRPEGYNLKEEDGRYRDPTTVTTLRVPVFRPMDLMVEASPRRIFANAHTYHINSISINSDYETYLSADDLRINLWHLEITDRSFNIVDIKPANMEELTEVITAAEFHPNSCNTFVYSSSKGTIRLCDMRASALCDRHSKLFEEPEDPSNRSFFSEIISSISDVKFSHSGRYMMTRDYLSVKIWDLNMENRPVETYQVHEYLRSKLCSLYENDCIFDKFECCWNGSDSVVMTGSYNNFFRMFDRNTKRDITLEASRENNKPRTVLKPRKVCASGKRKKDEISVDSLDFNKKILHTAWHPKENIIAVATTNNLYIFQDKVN
Source text: Recombinant protein B55 (regulatory sub-unit of PP2A) expressed in bacteria.
as §1, §2, §3

T1 sequence (P30153 whole entry): as the sequence (P54612 whole entry, one chain of several) above, with T324S counted along it

## AFRGRE VTVSLLEVFSFC (AFRGREVTVSLLEVFSFC) [site A3, E4orf4 residues 106-124, spot peptides 52 to 55]
[1]
  binding of E4orf4 peptide sequence to sub-unit A: binding sites of E4orf4 with the sub-unit A
[2]
  binding of E4orf4 peptide sequence to PP2A1 protein: binding sites of E4orf4 with the PP2A1 protein

## ARTSPLQTPAAPGAAAGPAL [site 1-B, Bcl-2 residues 67-86, spot peptides 33 to 37]
[3]; Bcl-2 dodecapeptide membrane, FIG. 2
  binding of Bcl-2 peptide sequence to sub-unit B: binding site of Bcl-2 with the regulatory sub-unit B

## LFDFSWLSLKTLLSLALVGA [site 2-ABC, Bcl-2 residues 209-228, spot peptides 105-109]
[2]
  binding of Bcl-2 peptide sequence to PP2A1 holoenzyme: binding site of Bcl-2 with the PP2A1 holoenzyme

## LGSMLE SPMEFLFDTI DDVTAS (LGSMLESPMEFLFDTIDDVTAS) [site A 1, E4orf4 residues 25-46, spot peptides 13 to 18]
[1]
  binding of E4orf4 peptide sequence to sub-unit A: binding sites of E4orf4 with the sub-unit A

## PLQTPAAPGAAAGPAL [site 1-ABC, Bcl-2 residues 71-86, spot peptides 35 to 37]
[2]
  binding of Bcl-2 peptide sequence to PP2A1 holoenzyme: binding site of Bcl-2 with the PP2A1 holoenzyme

## RELGSMLE SPMEFLFDTI DDVTAS (RELGSMLESPMEFLFDTIDDVTAS) [site B1, E4orf4 (canine adenovirus type 2) residues 23-46, spot peptides 12 to 18]
[3]; E4orf4 dodecapeptide membrane, FIG. 1
  binding of E4orf4 peptide sequence to sub-unit B: binding site of E4orf4 with the structural sub-unit B
[2]
  binding of E4orf4 peptide sequence to PP2A1 protein: binding sites of E4orf4 with the PP2A1 protein
